Where a chain is given by its changes, count along the chain named.
T1: CD9-ECL2 mutant M1 (human, with rat residues, UniProt P21926 112-195)
T1 construct: also called mutation 1; not shown: Myc and 8x His tag of the pYK His only vector
T1 chain: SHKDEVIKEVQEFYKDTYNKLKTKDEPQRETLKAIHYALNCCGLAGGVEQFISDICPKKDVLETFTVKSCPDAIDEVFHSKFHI

T2: p-Myc-His CD9-ECL2 wild type (human)
T2 chain: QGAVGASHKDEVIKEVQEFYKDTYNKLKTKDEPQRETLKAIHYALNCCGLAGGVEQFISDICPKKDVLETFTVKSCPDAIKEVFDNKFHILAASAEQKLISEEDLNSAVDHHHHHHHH

T3: CD9-ECL2 mutant M4 (human, with rat residues, UniProt P21926 112-195)
T3 construct: also called mutation 4; not shown: Myc and 8x His tag of the pYK His only vector
T3 chain: T1 chain with V10L, N19Q, K22R, T23N, D75K, H79D, S80N

B1: CD9 3F3 scFv monoclonal phage antibody (scFv, V domains shown, not shown: small tags and cut ends)
VH: QMQLVQSGAEVKKPGASVKLSCKASGYTFSSYWMHWVRQAPGQRLEWMGEINPGNGHTNYNEKFKSRVTITVDKSASTAYMELSSLRSEDTAVYYCGQDNSPPRIWGQGTLITVSS
VL: QSALTQPASVSGSPGQSITISCTGTSSDVGGYNHVSWYQQHPGKAPKLLIYDVSNRPSGVSGRFSGSKSGNTASLTISGLQAEDEANYYCGSYTSSSTFEVFGTGTKVTVL
B2: CD9 11G scFv monoclonal phage antibody (scFv, V domains shown)
VH: B1 VH with M2V, F29S, I112V
VL: DIQMTQSPSTLSASVGDRVTITCRASQTIGNLAWFQQKPGKAPKLLIYKASSLESGVPSRFSGSGSGTEFTLTISSLQPDDFATYYCQQYSDYWTFGQGTKVEIK
notes: also called 11G3
B3: CD9 8A scFv monoclonal phage antibody (scFv, V domains shown)
VH: QVQLVQSGAEVKKPGASVKLSCKASGYTFSSYWMHWVRQAPGQRLEWMGEINPGNGHTNYNEKFKSRVTITVGKSASTAYMELSSLRSEDTAVYYCAREGVSAAGGLDHWGQGTQITVSS
VL: DIQMTQSPSSLSVSTGARVTITCRASQGISNYLAWYQQKPGKAPKLLIYAASTLQSGVPSRFSGSGSGTDFTLTISSLQPEDFATYYCQQLNSYPLTFGGGTKVEIK
notes: also called 8A3
B4: CD9 12F scFv monoclonal phage antibody (scFv, V domains shown)
VH: QVQLVQSGAEVKKPGASVKLSCKASGYTFSSYWMHWVRQAPGQRLEWMGEINPGNGHTNYNEKFKSRVTITVDKSASTAYMELSSLRSEDTAVYYCARELEEGAFDIWGQGTMVTVSS
VL: B3 VL with S12P, V13A, T15V, A17D, N31S, L91Y, N92D, Y94V
notes: also called 12F3
B5: CD9 5G4 scFv monoclonal phage antibody (scFv, V domains shown)
VH: QVQLVSSGAEVKKPGASVKLSCKASGYTFSSYWMHWVRQAPGQRLEWMGEINPGNGHTNYNEKFKSRVTITVDKSASTAYMELSSLRSEDTAVYYCAREDDIEDAFDFWGQGTMVTVSS
VL: DIQMTQSPSSVSASVGDRVTITCRASQSISSWLAWYQQKPGKAPKLLIYGASNLQSGVPSRFSGSGSGTDFTLTISSLHPEDFATYFCHKTDSFPLTFGGGTKVEIK
B6: 10E4 whole IgG (antibody, V domains shown)
VH: MAQVQLVQSGGGLVQPGRSLRLSCAASGFTFDDFAMHWVRQAPGKGLEWVAGISWNSGDIRYADSVRGRFTISRDNAKNSLFLQMNSLRAEDTAVYYCARSPVGTTYFDYWGQGALITVSS
VL: DIQMTQSPSSLSASVGDRVTITCRASQGISSYLAWYQQKPGKAPKLLIYAASTLQSEVPSRFSGSGSGTDFTLTISSLQPEDFATYYCQQLNIFPLTFGGTKVDIKR
notes: Whole IgG made from the 10E4 phage clone in pNATAB H and pNATAB L vectors; the heavy chain PCR primer starts at QVQLVQS; also called 10E4 human antibody; anti-CD9(10E4) IgG

Columns and labels:
[1] = biological target: T4, CD9-ECL2(CD9 extracellular domain 2)-Fc antigen (human); experiment: phage ELISA; CD9 OD/a-myc OD (repeats Table 3)
T4 construct: also called CD9-ECL2-Fc; CD9-EC2-Fc
Protocol: (§1) A 96-well immuno-plate was coated with CD9-EC2-Fc antigen (0.1 μg/well) at 4° C. for 16 hours, followed by blocking with skim milk dissolved in PBS (4%). Each well of the 96-well immuno-plate was washed with 0.2 ml of PBS-tween20 (0.05%). 100 ul of the 3rd-4th panning monoclonal scFV-phage was added to each well, followed by reaction at room temperature for 2 hours. Each well was washed four times with 0.2 ml of PBS-tween20 (0.05%). The secondary antibody anti-M13-HRP was diluted at 1:2000, followed by reaction at room temperature for 1 hour. The plate was washed with 0.2 ml of PBS-tween20 (0.05%), followed by color development. OD₄₉₀ was measured.
Target sequence in this assay (chain, as listed by the source limits assumed): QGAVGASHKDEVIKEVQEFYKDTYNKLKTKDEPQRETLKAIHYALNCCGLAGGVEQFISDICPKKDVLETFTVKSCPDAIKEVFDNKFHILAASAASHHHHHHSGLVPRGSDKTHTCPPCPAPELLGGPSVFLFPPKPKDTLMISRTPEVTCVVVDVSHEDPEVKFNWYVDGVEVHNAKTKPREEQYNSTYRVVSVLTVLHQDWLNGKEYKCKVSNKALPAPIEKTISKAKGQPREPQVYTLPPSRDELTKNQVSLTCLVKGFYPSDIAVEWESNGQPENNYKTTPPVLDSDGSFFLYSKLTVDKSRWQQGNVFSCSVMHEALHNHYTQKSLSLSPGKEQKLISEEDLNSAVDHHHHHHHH

[2] = biological target: T4, CD9-ECL2(CD9 extracellular domain 2)-Fc …; experiment: phage ELISA; CD9 OD/a-myc OD
Protocol: as §1
Target sequence in this assay (chain, as listed by the source limits assumed): as above

[3] = biological target: T4, CD9-ECL2(CD9 extracellular domain 2)-Fc …; experiment: phage ELISA
Protocol: as §1
Target sequence in this assay (chain, as listed by the source limits assumed): as above

Fc = biological target: T5, Fc; experiment: phage ELISA
T5 construct: Control antigen of the phage ELISA
Protocol: as §1

[4] = biological target: T4, CD9-ECL2(CD9 extracellular domain 2)-Fc …; experiment: phage ELISA; CD9 OD/a-myc OD (repeats Table 2)
[5] = biological target: T4, CD9-ECL2(CD9 extracellular domain 2)-Fc …; experiment: phage ELISA; CD9 OD/a-myc OD; remark: listed apart in the source
CD9-ECL2 mutant M1 = biological target: T1, CD9-ECL2 mutant M1; experiment: ELISA: antibody coated, supernatant, anti-His-HRP
Protocol: (§2) Each supernatant was loaded by 24 ul at 100 V for 2 hours, and then transferred to NC membrane (Millipore Cat. No. HATF00010) at 85V for 2 hours. The membrane finished with transfer was blocked by using blocking buffer (4% skim milk in TEST) at room temperature for 1 hour. A-His-HRP (Sigma, Cat. No. A7058) was diluted with blocking buffer (4% skim milk in TBST) at 1:4000 and binding was induced at room temperature for 1 hour. The membrane was washed with TBST 5 times every 10 minutes, followed by development (Intron, Cat. No. 12145). Expression of each mutant was confirmed by Western blotting (FIG. 15). Based on that, epitopes of ALB6 and 10E4 were confirmed by ELISA. A 96-well immuno-plate (NUNC) was coated with coating buffer comprising ALB6 and 10E4 (100 ng/100 ul/well each) at 4° C. for 16 hours, followed by blocking with 4% PBST (skim milk dissolved in 1× PBS) for 2 hours. Each well of the 96-well immuno-plate was washed three times with 0.2 ml of PBST (PBS-tween20 (0.05%)). From the supernatants obtained on day 5 confirmed to contain a large number of mutants confirmed by Western blotting, wild type, M1 and M4 supernatants were selected. 100 ul of the selected supernatant was added to each well of the plate, followed by reaction for 2 hours. The plate was washed again. The secondary antibody anti-His-HRP (Sigma A7058) was diluted at 1:1000, followed by reaction at room temperature for 30 minutes. Washing was performed three times by the same manner as described above. OPD tablet (Sigma 8787-TAB) was added to PC buffer [C₆H₈O₇H₂O (Sigma, C0706) 5.1 g, Na₂HPO₄ (Sigma, 57907 7.3 g)] to make substrate solution, which was added to each well by 100 ul/well, followed by color development for 10 minutes. Color development was terminated by adding 2 M H₂SO₄ solution. Then, OD₄₉₀ was measured by using ELISA reader (Molecular Device).

[6] = biological target: T2, p-Myc-His CD9-ECL2 wild type; experiment: ELISA: antibody coated, supernatant, anti-His-HRP
Protocol: as §2

CD9-ECL2 mutant M4 = biological target: T3, CD9-ECL2 mutant M4; experiment: ELISA: antibody coated, supernatant, anti-His-HRP
Protocol: as §2

Row | Binder | Ratio [1] | Ratio [2] | OD490 [3] | OD490 (Fc) | Ratio [4] | Ratio [5] | OD490 (CD9-ECL2 mutant M1) | OD490 [6] | OD490 (CD9-ECL2 mutant M4)
1 | B1 | 0.918 | 0.918 | 0.961 | 0.0394 | – | – | – | – | –
2 | B2 | 1.23 | 1.23 | 2.24 | 0.0441 | – | – | – | – | –
3 | B3 | 0.73 | 0.73 | 1.61 | 0.088 | – | – | – | – | –
4 | B4 | 0.668 | 0.669 | 1.16 | 0.124 | – | – | – | – | –
5 | B5 | – | – | – | – | 1.04 | 1.04 | – | – | –
6 | B6 | – | – | – | – | – | – | 0.084 | 0.375 | 0.398

Source: US20110195027A1 (KOREA RESEARCH INSTITUTE OF BIOSCIENCE AND BIOTECHNOLOGY, published 2011)
